# Measured values as given in PMC8866124, “Visualizing protein breathing motions associated with aromatic ring flipping” (Nature, 2022).
# B1: SH3 domain of the JNK-interacting protein 1 (JIP1), wild type (domain or fragment, human)
# chain: GHMEQTHRAIFRFVPRHEDELELEVDDPLLVELQAEDYWYEAYNMRTGARGVFPAYYAIEVTK
# notes: N-terminal extension left on the protein after cleavage by the TEV protease; Called dimeric in the legends; The wild-type structure was solved by molecular replacement with chains A-B of PDB 2FPE; also called JIP1-SH3; JIP1-SH3(WT); not shown: His6, N-terminal, cleaved
# Target: the molecule itself
# Assay: crystal structure; wild-type JIP1-SH3 at 20 mg/ml; crystals in 0.1 M HEPES pH 7.5, 1-5% PEG 400, 2-2.5 M ammonium sulfate, 20 °C, hanging drop; molecular replacement with PDB 2FPE chains A-B
protein,measurement,value
B1,binding result,binds
